Test: soluble on expression in E. coli; label from the status in PepcDB or PDB records

Sequence	soluble on expression in E. coli
MAEQLSPGKAVDQVCTFLFKKPGRKGAAGRRKRPACDPEPGESGSSSDEGCTVVRPEKKRVTHNPMIQKTRDSGKQKAAYGDLSSEEEEENEPESLGVVYKSTRSAKPVGPEDMGATAVYELDTEKERDAQAIFERSQKIQEELRGKEDDKIYRGINNYQKYMKPKDTSMGNASSGMVRKGPIRAPEHLRATVRWDYQPDICKDYKETGFCGFGDSCKFLHDRSDYKHGWQIERELDEGRYGVYEDENYEVGSDDEEIPFKCFICRQSFQNPVVTKCRHYFCESCALQHFRTTPRCYVCDQQTNGVFNPAKELIAKLEKHRATGEGGASDLPEDPDEDAIPIT	soluble
MAESVEKLEDGIVRSAEQVSSQIRAAKDAIASVIFGQDRVIENTLVTILSGGHALLIGVPGLAKTKLVETLGVTLGLDAKRIQFTPDLMPSDILGAEVLDESTAGKRSFRFIAGPVFAQLLMADEINRASPRTQSALLQAMQEQHITVAGARHDLPKPFHVLATQNPLEQEGTYPLPEAQLDRFLMEIDVDYPDRDAERRILFETTGAEETLAKGSMTADALITAQRLIRRLPVGDSVVEAILSLVRSARPGPDSGETGKFIAWGPGPRASQSLMLAVRARALIDGRLAPSVDDVLDLAEPILKHRMALTFQARAEGRTIPDVIRQLKTRIGLEHHHHHH	soluble
MAFALWYSLQERAPVVERSLKVPLQVVGLGEGRRALGLPREVLLRLRGPAPLLEGRALPVSAYLDLSGAEGEVVREVRVAAPQGVEVLEVVPARVGVVVEVEAQRQIPVEVLAQGAWVLTDPAFVEAVGPESQVEAAVSAVGLDLGDEVVLFPFGPEGPLEGVELRPNRVRVVERREALFLKEVPLSLKPPPGRRLLDYAPKTVRLVGPREALEGLAGVAATLQEALGPGEVEVAVAPDLPPGVQTLGPVRVRVALE	soluble
MAFFRNCDPDDPLCIDECRLQKFEYLRWVRLLPSGDEDVLSYCASIGARLGKSEGYVSRRIDAFSMLLELSKVHELQLKMWHLDITRLMVIAQALSGVEKEVIEEIDAPLARFLTPKRDNQKMPGPKVIKKFIVDLLVRVEDAVEEVDSPQELAIDFYDAGNGKTGINAVVDNATASIFRDQLMRLAKAYECDDSSALLLMATQEGKSLTINLYKGDNFGELMTADGYRLSRKSVDLVFPNASRRSLEGVENVETRGYSFTPSMRAYIQARDGVCRFPGCSIRAVNCDIDHVEEYGLGGKTTARNAQCLCRRHHNLKTSKAVDCEISGDASVSWILEDGTKVVTLPEGIFSADRLFGQTFAQRVVDRIRRRKLRMRKNSCDDVPF	not soluble
MAFNDCFSLNYPGNPCPGDLIEVFRPGYQHWALYLGDGYVINIAPVDGIPASFTSAKSVFSSKALVKMQLLKDVVGNDTYRINNKYDETYPPLPVEEIIKRSEFVIGQEVAYNLLVNDCEHFVTLLRYGEGVSEQANRAISTVEFVTAAVGVFSFLGLFPKGQRAKYY	not soluble
MAFPRTLAILAAAAALVVACSHGGTPTGSSTTSGASPATPVAVPVPRSCAEPAGIPALLSPRDKLAQLLVVGVRDAADAQAVVTNYHVGGILIGSDTDLTIFDGALAEIVAGGGPLPLAVSVDEEGGRVSRLRSLIGGTGPSARELAQTRTVQQVRDLARDRGRQMRKLGITIDFAPVVDVTDAPDDTVIGDRSFGSDPATVTAYAGAYAQGLRDAGVLPVLKHFPGHGRGSGDSHNGGVTTPPLDDLVGDDLVPYRTLVTQAPVGVMVGHLQVPGLTGSEPASLSKAAVNLLRTGTGYGAPPFDGPVFSDDLSGMAAISDRFGVSEAVLRTLQAGADIALWVTTKEVPAVLDRLEQALRAGELPMSAVDRSVVRVATMKGPNPGCGR	not soluble
MAGAMIEARGLVKRFVSGRIRRRVVEALKGVSFSVYEGEIYSFLGPNGAGKTTTVRILSTLLDPDGGEARVAGFDVVKERWEVRKRIGVMLSVERGFYWKLTGRENLYYFGRIYGIPQGELKSRIKEVLDLVGLTDLGGADKPFEEMSLGMKARLGLARVLLKDPEVLILDEPTLGLDPASARTIRGVIRSLASEGRTIFITTHNMVEAEMISDRVGIIIGGRIAMEGTPDELKRRVFSSINLEFRVKASGHAAKKFFYDVKGEYGNRIVGGVTFSDGILTFRVSVNRDEPAEPIIDRITRLAYQYRFKILEIKALEPSLEDVFVAVSESGEARSGRVKGSIAQRLEHHHHHH	soluble
MAGDCSSHWPVTNPPRGYLSSRRLLEHSTRSIGQTVIHTRDPCDGTGMGVAVIGASMTKFGQRDVWIRELLSQAGEECLTDAGVAPDDVEHLYVSNMASGEFEGQTGIMNLLAHDLGVLPAYSERVDQTSSSGGAGIYEAWQSVASGASEMTLLVGGEKMTHKTTGQATDIIASITHPDEYKHGVTLPSFAGMTARHYLERFDAPRESLARVAVKNHRNGVDNPKAQFQKEITMEKALESPIIADPLRLYDFCPITDGSAALMFTTEERAKEITDEYALVSGIGGATDTHVVHERDDPTIMGGVVESSKQAYEMAGLGPNDLDVAELHDMFTILEFLQLEGIGVADQGTAWEMAMDGVTAKDGELPINTSGGLKSKGHPLGASGVAQGVEIYEQLVGEAGPRQVEADTALACNVGGFGNCVITTIMEAAE	not soluble
MAGDPMIEVIGVRFKKAGKIYYFGPNGIEIKKGQNVIVETARGIEFGECVIGIRKISEEDIVAPLKSVLRLATEEDINKHKENKAKETEAFEICLKKIEEHNLVMKLIDVEYTFDNNKVIFYFTAEGRVDFRELVKDLATIFKTRIELRQIGVRDEAKMIGGLGPCGRPLCCSTFLGDFASVSIKMAKEQSLSLNPTKISGICGRLMCCLNYEQSTYEEIRKELPRVGSVVETELGKGEVVGNNVLKELVRVKLPRKNEEIIQDFKMYDVKLISGSYEGEVEDTNIRLEITDEADKALIKNLIKDNLEHHHHHH	soluble
MAGDPMKIMIFICGEGLGHTSRCLALGKELLAAGHEIEFGAYGYSRDLVEKTGYRIHEIPSEIKLVGKAGGFDLSGSIEATLKNARILGGPKVLKLIKDFKPDVVVSDSYYLGTLAAMLLNIPVYLIINQSNMEDFFKNRGVPIRLLGDLTKKFYREVFEKTDKIIIPDYPLPYTVCRKNLNFSPGLWEKLEHHHHHH	not soluble
MAGDPMKNKSLLLAVAISATLLAGCKNGVNGNLIASSGMSTYKAATLSDADVKALSNNACKQMDSENQLAGSKSKYTKRLSKIAKALGNNIDGTPVSYKVYMTSDINAWAMANGCVRVYSGLMDLMTDNEIEGVLGHELGHVSLGHSRKAMQTAYATLAARDAISATSGVAAQLSQSQLGDLAEGVINSAFSRSQESDADDFSYDLLKKRGINTQGLVTAFDKFATMDAGHAKSLMDSHPASADRAQHMRDRIAEDKKLEHHHHHH	soluble
MAGDPMSLPGLSAAADQTIKIGAQSMSESEIIASMLGQLIEHHTDLKTTTIKNLGSNAVQQQALMNGEIDIAATRYTGDALTGTLRMEPEKDPDKALALTQREFKKRYDLKWYDSYGFDNTYAFTVSKELADQYHLETVSDVKKWAPQLKLGVDNYWMKLKGNGYQDFTKTYGMTFGGTYPMQIGLVYDAVKSGKMDIVLAYSTDGRIKSYGLKMLKDDKQFFPPYDCSPVVPEKVLKEHPELEGIIKKMLGKIDTATMQELNYEVDGNLKEPSVVAKEYLEKHRYFESLEHHHHHH	soluble
MAGDPMTMRVCYRCGISEEEGGPLINGLCQVCFRKENPVLLLPSEINTELCQNCGSYKKRGVWIDPQNYELESLIFEVAENALLEALEESLDKVKEFEVVPWEELENINNIPVGKAFVGFIPVDYHIQYFPAVIVYRVRVKARLHELQLEPHDEIKETTVYVRQTVCPRCQRFLAGYYEAILQVRVEDREFTKEEREAVTKLVQEKVDEIMKKDRMGFIQDTIEKEEGIDFYMGSTSAARKLANVIREHFGGEISEAYELVGLDRMTSKEVYRTSVTVRLPKFRRGDIVEDRHGRIYKVENVSGKGMRLKNLETWESQHYDWKTIKREKIDKAEHEEKKALLISQTPREAQFMDMSTYETFEVLKPGVNLEEGQLYRLVKVKGRFYIKEKEGEELEHHHHHH	not soluble
MAGDPMTSLTYLQGYPEHLLAQVRALIAEQRLGAVLEKRYPGAHDYATDKALYHYTQELKSQFLRNAPPINKVMYDSKIHVLKNALGLHTAVSRVQGGKLKAKAEIRVATVFRNAPEPFLRMIVVHELAHLKEKDHNKAFYQLCCHMEPQYHQLEFDTRLWLTHQALSAQLEHHHHHH	not soluble
MAGDPMYKIGIDVGGTNTDAVILDHQLNLIHSVKVPTTDDIQTGIAGALNKVLAESAVDPTKVTHAMLGTTQCTNAIVERKKLAKVGVLRLGYPATASVLPYTAWPKDLVATLSETYALAHGGYEYDGQPLTALDEEELRGILASWRGEVEAIAVIGVFSSLKNDQELFVQALAKEVLGADVPVSCSSMIGSVGLIERENATILNAALHKVIKVTSEGFEQALEQEKIHHAQVYLCQNDGTLMSLTYAKQFPILTIACGPTNSIRGASYLAGLKDAVVLDVGGTTSDIGVLVDGFPRESSLAVDVGGVRTNFRMPDIVSIGVGGGSLVREQPDGSVTVGPDSVGYRITQEALVFGGTQLTTTDIAVRLGHAQVGDPSKVAHLDQAFAEKVYQKIGELVSEAIDRMKTSSADVTVVLVGGGSIIIPEELTGVKALIRNKNGAVANAIGASIAQISGQYEQIYVYSKIQRDAALTDAQEKAVQQAELAGAVPGTIELVEVEETPLAYHPENATRLRVKVVGNMYLEHHHHHH	soluble
MAGEKAQKKGKEKWKEKTWYTVESPPYLGSKEVTVALGEDPESMVNRIVEVPISDLTGNFKKSNEKALFRITGCEGTKCKTIFIGHYIGDDYIRRLVRRRKERIDIIEDVKTSDGSIITVKIVVVSDGKLTNTKKSEIRKALTSFIVSKGSQLSYADFVRYLIGDDSYNDMVEATKNIYPLRKIEIRKSELVSLSGMQEPQKNEPAPGGEAIAQNLEHHHHHH	soluble
MAGGFGVGKTTFVGAVSEIAPLSTEELLTTVGAATDNLDGIENKVETTVAMDFGRITLDPEHVLYLFGTPGQQRFWFMWDELSEGALGAVILADTRRLEDCFAAVDFFEQRGLAFIVAINDFDGGYRYDPAEVRAAIDLDPHIPVVRCDARISSSGVQTLLTLVRHLLAHAPATAPSHGAHTLEHHHHHH	not soluble
MAHHHHHHMADYNAAGADTAVVDDNVPPGITTKQDEIIQYVAKYVVASCDGARYQDKVRTRTKHNPYFDFLNAKHPYHQYYQYLLESYRHWMRNSEAVGAGTWGGGVDATQGQGQQQQWNEEDYYQYYGAYAGQASGIEFQGNAAGQLGEGSSYVDASSSAHARNASSGVDPTSYESEAVTATGYGAGYDPSAVDPEPAQVATTAGGGEAQAEEDEDDEYELVMENGQWVSRKRM	soluble
MAHHHHHHMAEAKVVKDLAEVCASGAETYSAWTTAKALVQRRYLSAKAQGTFEDCGKLLASLTRVLQTYLRIDLAQELLSDVLFQVMEHFSAKQAAGATAAVVKDGGAPQSSFDLAAANFLQHMFDTLLSATTRTYTLMGPMPLVVEWNRDADSGGVEAAVAQSKHAAPWAEAVVLEFAVRAADFLSQRPQSADVLSHWAQNLFVSYEQLLALRLALPSSPPSTPQDGKAASAAAPSPSVPVPTLASQLLRMSTFNRASRTGKESSDSTSAATTPLTAAVYWLTHFAREPNAVNHLFAQYVYFDILGRGQQRSSTANTTPGNSGAPAKMLRERVNAALEERCTLTRREAISMARAAVEAYWQAFPLVLQQTSSVSSPQPSSCAGESSKEDANVDPQDVHLYRWTWFLDSLTLTFAYSGSASASIDEDAAVQQRERQKHVCAQLLELYADVTAELPGLKWQELVAAYIGA	soluble
MAHHHHHHMALQENRDSYKVKALSLSEFVQQCSDCHQLCLEKTVRVLDNRSRAPRGWEALFNSVAEERRSEDLDLCESRCRYMQTTCPSQDKVQQYEQALAAASLKLKKSTPPNPSVLQDASRCEHAVEVFSNVLFALAHKPSKVSFPTKDLKTGGNTDAESHAGAPTEAHRKVLEGAKNMDNDVSCRSSKLRHERFGSKAQDVASSTGSSLAPDTAAASPASSGTTPKW	not soluble

Reference: the DeepSol protein solubility set
